Data on 30 sequences can be found in the nanobody polyreactivity screen of Harvey et al. (2022).

This data set is described as follows: yeast display, Sf9 membrane polyspecificity reagent, FACS + sequencing; frameworks hold sequencing errors. An outline of the steps: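 A nanobody's polyreactivity label depends on the gate it was sorted from. Yeast display cells were stained with 10% biotinylated, detergent-solubilized Sf9 membrane reagent for 1 hour at 4 °C, enriched on streptavidin microbeads and sorted by FACS. The low and high (top ~1%) gates were set on anti-HA fluorescence for expression and streptavidin fluorescence for reagent binding.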
“QVQLVESGGGLVQAGGSLRLSCAASGRTFPPNSMAWYRQAPGKERELVAGITRGGNTYYADSVKGRFTISRDNAKNTVYLQMNSLKPEDTAVYYCAAERRYYSWYWYRVNYCGQGTQVTVSS”: the “polyreactivity (PSR sort gate)” value was “high polyreactivity”. Turning to “QVQLVESGGGLVQAGGSLRLSCAASGRTFPPYAMGWYRQAPGKERELVAANSWSGGSTYYADSVKGRFTISRDNAKNTVYLQMNSLKPEDTAVYYCAKATRDRGRYYYWGQGTQVTVSS”, the “polyreactivity (PSR sort gate)” value is “high polyreactivity”. As to “QVQLVESGGGLVQAGGSLRLSCAASGRTFPPYAMGWYRQAPGKERELVASIRRGGSTHYADSVKGRFTISRDNAKNTVYLQMNSLKPEDTAVYYCNADVIFGYTHYNYWGQGTQVTVSS”, the “polyreactivity (PSR sort gate)” value is “high polyreactivity”. In the case of “QVQLVESGGGLVQAGGSLRLSCAASGRTFPRNAMGWYRQAPGKERELVARINWSGGSTTYADSVKGRFTISRDNAKNTVYLQMNSLKPEDTAVYYCNARPYTSSFTKYGPSGYWGQGTQVTVSS”, the “polyreactivity (PSR sort gate)” value was “high polyreactivity”. Consider “QVQLVESGGGLVQAGGSLRLSCAASGRTFPRYAMGWYRQAPGKERELVADISFSGDSTSYADSVKGRFTISRDNAKNTVYLQMNSLKPEDTAVYYCNADYKSTVFRYSGSRNYWGQGTQVTVSS”, for which the “polyreactivity (PSR sort gate)” value is reported as “low polyreactivity”. As for “QVQLVESGGGLVQAGGSLRLSCAASGRTFPRYVMGWYRQAPGKERELVAAITSSGGSTYYADSVKGRFTISRDKAMNTVYLQMNSLKPEDTAVYYCAAFARPYSGQYAYRLDYWGQGTQVTVSS”, the “polyreactivity (PSR sort gate)” value was “high polyreactivity”. For “QVQLVESGGGLVQAGGSLRLSCAASGRTFPVNAMGWYRQAPGKERELVATISWSGGSTYYADSVKGRFTISRDYAKNTVYLQMNSLKPEDTAVYYCAALGRHYRYDYWGQGTLVTVSS”, the “polyreactivity (PSR sort gate)” value is reported as “low polyreactivity”. For “QVQLVESGGGLVQAGGSLRLSCAASGRTFPYNAMGWYRQAPGKERELVAAITWSGGSTYYADSVKGRFTISRDNAKNTVYLQMNSLKPEDTAVYYCNKDFPVFEYDYWGQGTQVTVSS” the value was “low polyreactivity”; for “QVQLVESGGGLVQAGGSLRLSCAASGRTFPYNAMGWYRQAPGKERELVAGITGGGSTYYADSVKGRFTISRDNAKKTVYLQMNSLKPEDTAVYYCAADRYFLYGTYPDVEFNYWGQGTQVTVSS”, “high polyreactivity”; for “QVQLVESGGGLVQAGGSLRLSCAASGRTFPYNAMGWYRQAPGKERELVASITYNGGSTYYADSVKGRFTISRDNAKNTVYLQMISLKPEDTAVYYCAKLFRTYYATYNYWGQGTQVTVSS”, “high polyreactivity”.

As to “QVQLVESGGGLVQAGGSLRLSCAASGRTFPYYAMGWYRQAPGKERELVAAINSGGITNYADSVKGRFTISRDNAKNTVYLQMNSLKPEDTAVYYCAAKTAFYRERGYWGQGTQVTVSS”, the “polyreactivity (PSR sort gate)” value is recorded as “low polyreactivity”. For “QVQLVESGGGLVQAGGSLRLSCAASGRTFPYYAMGWYRQAPGKERELVAAITRGVRTHYADSVKGRFTISRDNAKYTVYLQMNSLKPEDTAVYYCAREDWGSYSDMDSWGQGTQVTVSS” the value was “low polyreactivity”; for “QVQLVESGGGLVQAGGSLRLSCAASGRTFPYYAMGWYRQAPGKERELVARITSGSGTYYADSVKGRFTISRDNAKNTVYLQMNSLKPEDTAVYYCAAREPGVGYVGNYTGLVYWGQGTQVTVSS”, “low polyreactivity”. As for “QVQLVESGGGLVQAGGSLRLSCAASGRTFPYYTMGWYRQAPGKERELVAAITSGGSTYYADSVKGRFTISRDNAKNTVYLQMNSLKPEDTAVYYCNKDAYYWGQGTQVTVSS”, the entry is “low polyreactivity”. For “QVQLVESGGGLVQAGGSLRLSCAASGRTFPYYVMGWYRQAPGKERELVAAISTTGGSTYYADSVKGRFTISRDNAKNTVYLQMNSLKPEDTAVYYCAARRLIRDNLGYDYWGQGTQVTVSS” the value was “high polyreactivity”. Regarding “QVQLVESGGGLVQAGGSLRLSCAASGRTFQEYAMGWYRQAPGKERELVADISDGGSTNYADSVKGRFTISRDNAKNTVYLQMYSLKPEDTAVYYCAADQYHGVGINFRSDYDYWGQGTQVTVSS”, the “polyreactivity (PSR sort gate)” value was “low polyreactivity”. For “QVQLVESGGGLVQAGGSLRLSCAASGRTFQFYAMGWYRQAPGKERELVAAISSGGSTNYADSVKGRFTISRDNAKNTVYLEMNSLKPEDSAVYYCAKRPWYHADWWDDHWGQGTQVTVSS” the value was “high polyreactivity”; for “QVQLVESGGGLVQAGGSLRLSCAASGRTFQFYVMGWYRQAPGKERELLASIRSGGSTNYADSVKGRFTISRDNAKNTVYLQMNSLKPEDTAVYYCNADAYGTPEFTSYAVRYDYWGQGTQVTVSS”, “low polyreactivity”; for “QVQLVESGGGLVQAGGSLRLSCAASGRTFQGKAMGWYRQAPGKERELVAAISSSGGRTYYADSVKGRFTISRDNAKNTVYLQMNSLKPVDTSVYYCAARNYFWGQGTQVTVSS”, “low polyreactivity”.

Take “QVQLVESGGGLVQAGGSLRLSCAASGRTFQGNAMGWYRQAPGKERELVAVIDSGTSTDYADSVKGRFTISRDNAKNTVYLQMNSLKPEDTAVYYCAADGALGYNLRYDYWGQGTQVTVSS”: the “polyreactivity (PSR sort gate)” value is recorded as “low polyreactivity”. With “QVQLVESGGGLVQAGGSLRLSCAASGRTFQGYAMGWYRQAPGKERELVAAISYRGGSTYYADSVKGRFTISRDHAKPTVFLPMNSLKPEDTAVYYCAARWNRGRYDYWGQGTQVTVSS”, the “polyreactivity (PSR sort gate)” value is “high polyreactivity”. With “QVQLVESGGGLVQAGGSLRLSCAASGRTFQLYAMGWYRQAPGKERDLVAAISARGGSTYYADSVKGRFTISRDNAKNTVYLQMNSLKPEDTAVYYCNADYNVVLSRVIYARGYWGQGTQVTVSS”, the “polyreactivity (PSR sort gate)” value was “high polyreactivity”. As for “QVQLVESGGGLVQAGGSLRLSCAASGRTFQQNAMGWYRQAPGKERELVAAINSRGGRTYYADSVKGRFTISRDTAKNTVYLQMNSLKPEDTAVYYCAARYYWGQGTQVTVSS”, the entry is “high polyreactivity”; as for “QVQLVESGGGLVQAGGSLRLSCAASGRTFQSNAMGWYRQAPGKERELVAAITNGGNTNYADSVKGRFTISRDNAKNTVYLQMNSLKPEDTAVYYCAADRLYVRYGYWGQGTQVTVSS”, “low polyreactivity”; as for “QVQLVESGGGLVQAGGSLRLSCAASGRTFQSNGMGWYRQAPGKERELVAAITWSSGTTYYADSVKGRFTISRDNAKNTVYLQMNSLKPEDTAVYYCAADWGHWNSLFYSGFGYWGQGTQVTVSS”, “low polyreactivity”. Take “QVQLVESGGGLVQAGGSLRLSCAASGRTFQYYAMGWYRQAPGKEREFVAAISRSGGSTYYADSVKGRFTISRDNAKNTVYLQMNSLKPEDTAVYYCAADAYRSSYDYWGQGTQVTVSS”: the “polyreactivity (PSR sort gate)” value was “low polyreactivity”. As to “QVQLVESGGGLVQAGGSLRLSCAASGRTFQYYAMGWYRQAPGKERELVAAISSRGGSTYYADSVKGRFTISRDNAKNTVYLQMNSLKPEDTAVYYCAAYVLPRQRVRSDYWGQGTQVTVSS”, the “polyreactivity (PSR sort gate)” value is recorded as “high polyreactivity”.

Take “QVQLVESGGGLVQAGGSLRLSCAASGRTFQYYTMGWYRQAPGKEREFVAALRDSGGSTYYADSVKGRFTISRDNAKNTVYLQMNSLKPEDTAVYYCAAYRPRKYDYWGQGTQVTVSS”: the “polyreactivity (PSR sort gate)” value is on record as “high polyreactivity”.

For the sequence “QVQLVESGGGLVQAGGSLRLSCAASGRTFRANAMGWYRQAPGKERELFAAISKRGGNTYYADSVKGRFTISRDNAKNTVYLQMNSLKPEDTAVYYCADDFICRDYDYWGQGTQVTVSS”, the “polyreactivity (PSR sort gate)” value is on record as “high polyreactivity”. For “QVQLVESGGGLVQAGGSLRLSCAASGRTFRANAMGWYRQAPGKERELVAAIRTGTRTYYADSVKGRFTISRDNAKNTVYLQMNSLKPEDTAVYYCNRRHYYPYDNYDAMYYWGQGTQVTVSS” the value was “high polyreactivity”.
